From US7358338B2, “Heme peptide” (Nihon University, priority 2002, dated 2008)

Tests used:
[1] = Measurement of NO-scavenging ability (nitrite/dithionite/methyl viologen reaction, remaining nitrite by diazotization method); format: biochemical; conditions: reaction turnover number from Lineweaver-Burk plot; 2, 4, 6, 8 and 10 mM sodium nitrite; pH 7.0; 37° C.
Description: To a 10 ml vial, 0.3 ml of 100 mM phosphate buffer (pH 7.0), 0.4 ml of 10 mM sodium nitrite, 0.5 ml of a solution of each of the above-described peptides, and 0.4 ml of 3 mM methyl viologen (Tokyo Kasei Kogyo) were added. Then, the vial was tightly sealed with a butyl rubber stopper and an aluminum seal. This vial was kept at 37° C. for 5 min while feeding argon gas thereinto. Then, 0.3 ml of 100 mM sodium dithionite (dissolved in 50 mM sodium hydrogencarbonate) was added thereto to start the reaction. A 0.2 ml sample was taken from the reaction solution at regular intervals and air-oxidized in a vortex mixer to thereby terminate the reaction.
The amount of the remaining nitrite was determined by the diazotization method. 0.02 ml of the reaction solution was taken, and 1.98 ml of ultrapure water was added thereto. Then, 1 ml of 1% sulfanilamide, 1 ml of 0.02% N-1-naphthyl ethylenediamine chloride and 1 ml of ultrapure water were added thereto. The resultant solution was left at room temperature for 20 min. Then, absorption of the produced azo dye was measured at 540 nm, followed by calculation of the amount of the remaining nitrite from a working curve prepared from a nitrous acid solution of a known concentration.
The measurement of absorption was performed with Shimadzu UV-1600 UV-Visible Spectrophotometer.
Analysis based on reaction kinetics was performed by determining specific activities against 2, 4, 6, 8 and 10 mM sodium nitrite and then calculating the reaction turnover number kcat(s^−1) using a Lineweaver-Burk plot.

[2] = Oxidation-reduction potential (spectrophotometer and ORP electrode); format: physicochemical
Description: (§1) In the following Examples, reagents manufactured by Wako Purechemical Industries were used unless otherwise noted. Isoelectric point was analyzed by isoelectric focusing using Ampholine PAGplate gel (Pharmacia; for IEF; pH 3.5-9.5). Absorption maximum was determined with Hitachi U-3310 Spectrophotometer (Hitachi). Oxidation-reduction potential was determined with Hitachi U-3310 Spectrophotometer (Hitachi) and ORP electrode (Metrohm).

[3] = Isoelectric point by isoelectric focusing (Ampholine PAGplate gel, pH 3.5-9.5); format: physicochemical
Description: as §1

Q: With “Horse cardiac muscle cytochrome c: horse cardiac muscle cytochrome c (Wako Purechemical Industries), SEQ ID NO: 1; comparison protein [reference compound]” as the molecule, how does the “Rate Constant kcat” value [1] read?
A: 0.01521 s⁻¹

Q: Which Oxidation-reduction potential [2] does the source give for “mp65: heme peptide, SEQ ID NO: 6, heme bound to Cys 14 and 17; cyanogen bromide cleavage of horse cardiac muscle cytochrome c” here?
A: −62.1 mV

Q: What about the Isoelectric point [3] of the same molecule?
A: 9.52

Q: What about the “Rate Constant kcat” value [1] of the same molecule?
A: 0.12 s⁻¹

Q: Which results are given for “mp9: heme peptide, SEQ ID NO: 4, heme bound to Cys 1 and 4; trypsin digest of horse cardiac muscle cytochrome c (CAQCHTVEK; heme bound to Cys1 and Cys4; listed as Equus caballus)”?
A: Oxidation-reduction potential [2]: −132 mV; Isoelectric point [3]: 4.95; Rate Constant kcat [1]: 1.66 s⁻¹

Q: For “mp22: heme peptide, SEQ ID NO: 5, heme bound to Cys 4 and 7; chymotrypsin digest of horse cardiac muscle cytochrome c (VQKCAQCHTVEKGGKHKTGPNL; heme bound to Cys4 and Cys7; listed as Equus caballus)”, which Oxidation-reduction potential [2] is on record?
A: −66.5 mV

Q: What about the Isoelectric point [3] of the same molecule?
A: 6.02

Q: What about the “Rate Constant kcat” value [1] of the same molecule?
A: 0.80 s⁻¹

Q: For “mp15: heme peptide, SEQ ID NO: 3, heme bound to Cys 5 and 8; thermolysin digest of Porphyra yezonesis cytochrome c6 (FSANCAACHAGGNNA; heme bound to Cys5 and Cys8; listed as Porphyra yezoensis)”, which Oxidation-reduction potential [2] is on record?
A: −82.2 mV

Q: And the Isoelectric point [3]?
A: 4.15

Q: And the “Rate Constant kcat” value [1]?
A: 2.54 s⁻¹

B1: Red alga Porphyra yezonesis cytochrome c6: cytochrome c6 purified from red alga Porphyra yezonesis, SEQ ID NO: 2; comparison protein (protein, listed as Porphyra yezoensis)
chain: ADLDNGEKVFSANCAACHAGGNNAIMPDKTLKKDVLEANSMNTIDAITYQVQNGKNAMPAFGGRLVDEDIEDAANYVLSQSEKGW
Q: For B1, which “Rate Constant kcat” value [1] is on record?
A: 0.05 s⁻¹
